According to patent US20210292393A1 (published 2021):

biological target: SARS-CoV-2 full length spike protein (wild type), conjugated to beads (SARS-CoV-2, UniProt P0DTC2 14-1208)

Row | Binder | binding signal, bead assay
1 | antibody 409 (antibody, V domains shown) VH: QVTLRESGPALVKPTQTLTLTCTFSGFSLSTSGMCVSWIRQPPGKALEWLALIDWDDDKYYSTSLKTRLTISKDTSKNQVVLTMTNMDPVDTATYYCARTTYYYVSGRRAEFDPWGQGTLVTVSS VL: NFMLTQPHSVSESPGKTVTISCTGSSGSIASNYVQWYQQRPGSAPTTVIYEDNQRPSGVPDRFSGSIDSSSNSASLTISGLKTEDEADYYCQSYDSSNQGVFGGGTKLTVL | 552 fold over isotype
2 | antibody 366 (antibody, V domains shown) VH: QVQLVESGGGVVQPGRSLRLSCAASGFTFSSYAMHWVRQAPGKGLEWVAVISYDGSNKYYADSVKGRFTISRDNSKNTLYLQMNSLRAEDTAVYYCARGLVGYNWFDPWGQGTLVTVSS VL: DIQMTQSPSSVSASVGDRVTITCRASQGISSWLAWYQQKPGKAPKLLIYAASSLQSGVPSRFSGSGSGTDFTLTISSLQPEDFATYYCQQANSFTFGPGTKVDIK | 553 fold over isotype
3 | antibody 407 (antibody, V domains shown) VH: QVQLVESGGGVVQPGRSLRLSCAASGFTFSSYGMHWVRQAPGKGLEWVAVISYDGSNKYYADSVKGRFTISRDNSKNTLYLQMNSLRAEDTAVYYCAKCGWDYDFWVGQGYGMDVWGQGTTVTVSS VL: not shown | 785 fold over isotype
4 | antibody 367 (antibody, V domains shown) VH: QVQLVQSGAEVKKPGASVKVSCKASGYTFTGYYIHWVRQAPGQGLEWMGWINPNSGGTIYAQKFQGRVTMTRDTSISTAYMELSRLTSDDTAVYSCAREPYYDILTGYYAPRRYFDYWGQGTLVTVSS VL: QSALTQPASVSGSPGQSITISCTGTSSDVGSYNYVSWYLQHPGKAPKLMIYDVSNRPSGVSNRFSGSKSGNTASLTISGLQAEDEADFYCSSYTSRSTYVFGTGTKVTVL | 1090 fold over isotype
5 | antibody 378 (antibody, V domains shown) VH: QVQLVQSGAEVKKPGASVKVSCKASGYTFTSYYMHWVRQAPGQGLEWMGIINPSGGSTSYAQKFQGRVTMTRDTSTSTVYMELSSLRSEDTAVYYCARDSGGMDDFWSGYYSPGGDYWGQGTLVTVSS VL: QSALTQPASVSGSPGQSITISCTGTSSDVGSYNLVSWYQQHPGKAPKLMIYEGSKRPSGVSNRFSGSKSGNTASLTISGLQAEDEADYYCCSYAGSSTWVFGGGTKLTVL | 526 fold over isotype
6 | antibody 380 (antibody, V domains shown) VH: QVQLVESGGGVVQPGRSLRLSCAASGFTLKNYGMHWVRQAPGKGLEWVIVLSFDGSDEYKADSVRGRFTVSRDNSKNTLFLQMNSLRPDDTAVYYCAREQPTMIEGGRGPFDIWGQGTMVTVSS VL: EVVMTQSPATLSVSPGDRATLSCRASQGVNSNLAWYQQKPGQAPRLLIYAASTRATGIPARFSASGSGTHFTLTISSLQSEDFAVYYCLQYNNWPPWTFGQGTKLEIK | 1.15 fold over isotype
7 | antibody 385 (antibody, V domains shown) VH: QVQLVESGGGVVQPGRSLRLSCAASGFTFSSYAIHWVRQAPGKGLEWVAVISYDGSNKYYADSVKGRFTISRDNSKNTLYLQMNSLRAEDTAVYYCARPRSGSYWGAFDIWGQGTMVTVSS VL: QSVLTQPPSVSGAPGQRVTISCTGSSSNIGARYDVHWYQQLPGTAPKLLIYGNSNRPSGVPDRFSGSKSGTSASLAITGLQAEDEADYYCQSYDSSLRGVFGGGTKLTVL | 602 fold over isotype
8 | antibody 372 (antibody, V domains shown) VH: QVQLVESGGGVVQPGRSLRLSCAASGFTFSSYAMHWVRQAPGKGLEWVAVISYDGSNKYYADSVKGRFTISRDNSKNTLYLQMNSLRAEDTAVYYCARDLGTSALLWFGELFLNYGMDVWGQGTTVTVSS VL: QSALTQPRSVSGSPGQSVTISCTGTSSDVGGYNYVSWYQQHPGKAPKLMIYDVSKRPSGVPDRFSGSKSGNTASLTISGLQAEDEADYYCCSYAGSPILVFGGGTKLTVL | 823 fold over isotype
9 | antibody 405 (antibody, V domains shown) VH: not shown VL: QSALTQPRSVSGSPGQSVTISCTGTSSDVGGYNYVSWYQQHPGKAPKLMIYDVSKRPSGVPDRFSGSKSGNTASLTISGLQAEDEADYYCCSYAGSYNVVFGGGTKLTVL | 487 fold over isotype
10 | antibody 395 (antibody, V domains shown) VH: QVQLVQSGSELKKPGASVKLSCQASGYTFSNHAMNWVRQAPGQGLEWMGWINTNTGNPTYAQGFTGRFVFSLDTSVGTAYLHISSLKAEDTAFYYCARASARPGVATNLDFWGQGTLVVVSS VL: DIQMTQSPSSLSASVGDRVTITCRTSQNIDNYLNWYQQKPGKAPNLLIYAASRLHSGVPSRFSGSGSGTDFTLIISSLQPEDLATYYCQQSYSNPLTFGPGTKVDIR | 592 fold over isotype
11 | antibody 365 (antibody, V domains shown) VH: QVQLVESGGGVVQPGRSLRLSCAASGFNLSSYAMHWVRQASGKGLEWVSLISYDGSIKYYTDSVKGRFTVSGDNSKNTLFLQMNSLRPDDSALYYCVRGGVSGPNSFDMWGQGTTVTVSS VL: DVVMTQSPLSLPVTLGQPASISCRSSQSLVYSDGNTYVNWFQQRPGQSPRRLIYKVSIRASGVPDRFSGSGSGTDFALKISRVEAEDVGVYYCMQGTHWPVTFGQGTKVEIK | 533 fold over isotype

biological target: SARS-CoV-2 spike (S) protein, full length, wild type (SARS-CoV-2, UniProt P0DTC2 14-1208)

Row | Binder | median fluorescence fold over isotype
12 | anti-SARS-CoV-2 antibody 470 (antibody, V domains shown) VH: not shown VL: QSALTQPASVSGSPGQSITISCTGTSSDVGSYNLVSWYQQHPGKAPKLMIYEVSKRPSGVSNRFSGSKSGNTASLTISGLQAEDEADYYCCSYAGSSTLVFGGGTKLTVL | 1180 fold over isotype
13 | anti-SARS-CoV-2 antibody 456 (antibody, V domains shown) VH: QVQLQQWGAGLLKPSETLSLTCAVYGGSFSGYYWSWIRQPPGKGLEWIGEINHSGSTNYNPSLKSRVTISVDTSKNQFSLKLSSVTAADTAVYYCARDGSGSYYLSYYFDYWGQGTLVTVSS VL: not shown | 595 fold over isotype

biological target: SARS-CoV-2 full length spike (S) protein, wild type, expressed on the surface of CHO cells (SARS-CoV-2, UniProt P0DTC2 14-1273)

Row | Binder | median fluorescence intensity, fold over isotype control
14 | antibody 563 (antibody, V domains shown) VH: QVQLVESGGGVVQPGRSLRLSCAASGFTFSSYAMHWVRQAPGKGLEWVAVISDDGSNKYYADSVKGRFTISRDNSKNTLYLQMNSLRAEDTAVYYCARDIVATIRRLFDYWGQGTLVTVSS VL: not shown | 9.67 fold over isotype
15 | antibody 565 (antibody, V domains shown) VH: EVQLVESGGGLVQPGGSLRLSCTASGFTLSDHYMDWVRQAPGKGLEWVARTRNKVNSYSTEYAASVKGRFSMSRDDSKNSLYLQMTRLQTDDTAVYYCARSLMILGARGASDYWGQGTLVTVSS VL: DIQMTQSPSTLSASAGDRVTITCRASQNIDSWLAWYQQHPGKAPNLLIYKASFLQSGVPSRFSGSGSGTEFTLTISSLQPDDFATYYCQQYNSYPVTFGQGTRLEIK | 1.11 fold over isotype
16 | antibody 560 (antibody, V domains shown) VH: EVQLVESGGGLVQPGGSLRLSCAASGFTISSNYMSWVRQAPGKGLEWVSVIYSGGSTYYADSVKGRFTISRDNSKNTLYLQMNSLRAEDTAVYYCAREEGEWEKDYYGMDVWGQGTTVTVSS VL: not shown | 22.8 fold over isotype
17 | antibody 556 (antibody, V domains shown) VH: QVQLVESGGGVVQPGRSLRLSCAASGFTFSSYAMHWVRQAPGKGLEWVAVISYDGSDKYYADSVKGRVTISRDNSKNTLYLQMNSLRVEDTAVFYCAKDDCSGGVCFPDYWGQGTLVTVSS VL: QSALTQPASVSGSPGQSITISCTGTSSDVGGYNYVSWYQQHPGKAPKLMIYEVSIRPSGVSNRFSGSKSGNTASLTISGLQAEDEAAYYCSSYTSSSTLVFGGGTKLTVL | 7.59 fold over isotype
18 | antibody 566 (antibody, V domains shown) VH: QVQLVQSGAEVKKPGASVKVSCKASGYTFTSYAMHWVRQAPGQRLEWMGWINAGNGNTKYSQKFQGRVTITRDTSASTAYMELSSLRSEDTAVYYCARDLGVAVTLHPADFDYWGQGTLVTVSS VL: QSVLTQPPSVSGAPGQRVTISCTGSSSNIGAGYDVHWYQQLPGTAPKLLIYDNSNRPSGVPDRFSGSKSGTSASLAITGLQAEDEADYYCQSYDSSLSAVVFGGGTKLTVL | 31.5 fold over isotype
19 | antibody 571 (antibody, V domains shown) VH: EVQLVESGGGLVQPGGSLRLSCAASGFTFSTYWMTWVRQAPGKGLEWVANIKHDGSGKYHVDSVKGRFTISRDNAKNSLYLQMNSLRAEDTAVYYCTRDEGGWYDYWGQGTLVTVSS VL: QSALTQPASVSGSPGQSITISCTGTSSDVGSYNPVSWYQQHPGKAPKVMIYEGSKRPSGVSNRFSGSKSGNTASLTISGLQAEDEADYYCCSYARSSTFVVFGGGTKLTVL | 8.3 fold over isotype
20 | antibody 548 (antibody, V domains shown) VH: QVQLVESGGGVVQPGRSLRLSCAASGFTFSSYAMHWVRQAPGKGLEWVAVISYDGSNKYYADSVKGRFTISRDNSKNTLYLQMNNLRAEDTAVYYCAKSGSGSYLSAFDIWGQGTMVTVSS VL: not shown | 9.26 fold over isotype
21 | antibody 569 (antibody, V domains shown) VH: QVQLVESGGGVVQPGRSLRLSCAASGFTFSSYAMHWVRQAPGKGLEWVAVISYDGSNKYYADSVKGRFTISRDNSKNTLYLQMNSLRAEDTAVYYCARASSGGYQGPFDPWGQGTLVTVSS VL: EIVLTQSPATLSLSPGERATLSCRASQSVSSYLAWYQQKPGQAPRLLIYDASNRATGIPARFSGSGSGTDFTLTISSLEPEDFAVYYCQQRSSPFGPGTKVDIK | 8.78 fold over isotype
22 | antibody 564 (antibody, V domains shown) VH: QVHLVESGGGVVQPGKSLRLSCAASGFIFSSFGMHWVRQPPGKGLEWLAVVSYDGSVTKYSDSFEGRFTISRDNSKNTLYLQMDSLRPEDTAVYYCAKGQGTNLLHYWGQGILVTVSS VL: DVVLSQSPLSLPVTLGQPASISCRSSESLVYTDGDTYLHWFHQRPGQSPRRLIFKVSHRESGVPDRISGSGSGTDFTLKISRVEAEDVGVYYCMQGTHWPFTFGPGTKVDIK | 10.8 fold over isotype
23 | antibody 547 (antibody, V domains shown) VH: QVHLVESGGGVVQPGRSLRLSCAASGFALSSYAMHWVRQPPGKGLEWVALISYDGSVKKYADSVKGRITVSGDNSRNTLHLQINSLRADDTAVYYCVRGGVSGPNSFDLWGHGTMVTVSS VL: DVVLTQSPLSLPVTLGQPASISCRSSQSLEYSVGNTYVNWFQQRPGQSPRRLIYKVSNRDSGVPDRFSGSGSGTDFTLQISRVEADDVGIYYCMQGTHWPVTFGQGTKVEIK | 10.6 fold over isotype
